B1: LINE1-mini (parent)
chain: GGCAGAGCUCAACACAGCGUGGCAAAGUGGCUGUGGCUAGACUGCC

The variants in this data set derive from B1. Put plainly: self-cleavage, relative activity (ratio to wild type); higher = more cleavage; in vitro, sequencing; the parent is a self-cleaving ribozyme.
For G21U A41U, the self-cleavage was determined as 0.9.
For G21U A41G the value was 0.28.
With G21C G30C, the self-cleavage was found to be 1.62.
Turning to G21C G30U, the self-cleavage was found to be 1.1.
Consider G21C G30A, for which the self-cleavage was determined as 1.86.
Then G21U G22U, with 1.4; and G21U G22A, with 1.03; and G21U G22C, with 1.71.
Turning to G22C G27U, the self-cleavage came to 0.53.
For G22C G27C the value was 0.44.
Then G22C G27A, with 0.75.
With G21C U34A, the self-cleavage came to 0.12.
Then G21C U34C, with 0.19; and G21C U34G, with 0.24; and G21U U32G, with 0.26.
As to G21U U32C, the self-cleavage was determined as 0.68.
For G21U U32A the value was 0.12.
Then G21U U34A, with 0.12; and G21U U34G, with 0.34.
Then G21U U34C, with 0.27.
For G21C G36C, the self-cleavage was 0.03.
Regarding G21C G36U, the self-cleavage worked out at 0.03.
For G21C G36A the value was 0.1; for G21C C42A, 0.19.
For G21C C42U the value was 0.36; for G22A C31U, 0.49.
Turning to G22A C31A, the self-cleavage came to 0.2.
Take G22A C31G: the self-cleavage was found to be 0.1.
For G22U A26G, the self-cleavage came to 1.68.
For G22U A26U, the self-cleavage was determined as 1.59.
In the case of G22U A26C, the self-cleavage amounted to 1.53.
For G21U A24C the value was 0.51; for G21U A24G, 1.37; for G21U A24U, 1.01.
Regarding G22A A25G, the self-cleavage was 1.23.
Take G22A A25C: the self-cleavage amounted to 0.8.
Then G22A A25U, with 1.38.
For G22C A25C the value was 0.31; for G22C A25U, 1.23.
Then G22C A25G, with 1.07; and G21U A25U, with 1.88.
Regarding G21U A25C, the self-cleavage came to 1.44.
With G21U A25G, the self-cleavage was found to be 1.23.
For G21C C37G the value was 0.05; for G21C C37A, 0.02.
With G21C C37U, the self-cleavage amounted to 0.01.
For G22U C46A, the self-cleavage came out at 1.15.
For G22U C46U the value was 1.22; for G22U C46G, 0.91.
With G22U A24C, the self-cleavage was found to be 0.92.
Then G22U A24U, with 1.4; and G22U A24G, with 1.25.
For G21C G27C the value was 0.52; for G21C G27U, 0.84; for G21C G27A, 0.84.
For G22U A25U the value was 1.49; for G22U A25G, 1.01; for G22U A25C, 0.65.
Consider G21U G30A, for which the self-cleavage was determined as 1.81.
For G21U G30U the value was 1; for G21U G30C, 2.18; for G22C C45U, 1.21.
Then G22C C45G, with 0.17; and G22C C45A, with 0.39.
Then G21U C37G, with 0.04; and G21U C37U, with 0.06; and G21U C37A, with 0.09.
On to G22A, for which the self-cleavage is 0.81.
With G22U, the self-cleavage was 1.38.
For G22C the value was 0.78; for G21U G29U, 0.55; for G21U G29A, 0.63.
In the case of G21U G29C, the self-cleavage amounted to 0.4.
Take G21C G40C: the self-cleavage stood at 0.07.
With G21C G40A, the self-cleavage came out at 0.04.
As to G21C G40U, the self-cleavage is 0.15.
For G22C U38G the value was 0.05; for G22C U38A, 0.31; for G22C U38C, 0.68.
On to G21U C23U, for which the self-cleavage was determined as 1.38.
Then G21U C23G, with 0.9; and G21U C23A, with 1.24; and G22A C42U, with 0.7.
Then G22A C42G, with 0.03; and G22A C42A, with 0.35.
For G22U G30A the value was 1.49.
With G22U G30U, the self-cleavage worked out at 1.03.
Then G22U G30C, with 2.28; and G22A U34A, with 0.2.
Consider G22A U34G, for which the self-cleavage came to 0.51.
As for G22A U34C, the self-cleavage was 0.87.
For G22C C42G the value was 0.03; for G22C C42A, 0.13.
For G22C C42U the value was 0.21.
For G22C G40U the value was 0.14; for G22C G40C, 0.08; for G22C G40A, 0.09.
In the case of G21C U32C, the self-cleavage stood at 1.82.
Take G21C U32A: the self-cleavage worked out at 0.13.
For G21C U32G the value was 0.23.
For G22C G29C the value was 0.27; for G22C G29U, 0.38.
On to G22C G29A, for which the self-cleavage turned out to be 1.19.
For the variant G22U C45U, the self-cleavage was found to be 1.25.
Then G22U C45A, with 0.88; and G22U C45G, with 0.42.
In the case of G21C A41C, the self-cleavage came to 0.07.
Then G21C A41U, with 0.5; and G21C A41G, with 0.32.
For G21C C23U the value was 1.27; for G21C C23G, 0.53.
G21C C23A: the self-cleavage was 0.43.
Then G22U C23G, with 2.27.
On to G22U C23U, for which the self-cleavage came to 1.8.
Then G22U C23A, with 1.25.
On to G21U, for which the self-cleavage worked out at 1.06.
For G21U C42U the value was 0.53; for G21U C42A, 0.23.
Regarding G21U C42G, the self-cleavage came to 0.04.
Then G22A G36C, with 0.13.
Then G22A G36U, with 0.15; and G22A G36A, with 0.1; and G22C U43G, with 0.06.
For G22C U43C the value was 0.06; for G22C U43A, 0.12.
On to G22A U28C, for which the self-cleavage turned out to be 0.51.
For the variant G22A U28A, the self-cleavage worked out at 0.4.
Then G22A U28G, with 0.67; and G22A G33C, with 0.05.
On to G22A G33A, for which the self-cleavage is 0.52.
For G22A G33U the value was 0.22; for G21U U38G, 0.04; for G21U U38A, 0.42.
Consider G21U U38C, for which the self-cleavage is 0.9.
For G21C C45U the value was 1.56; for G21C C45A, 0.49.
For G21C C45G the value was 0.07.
Then G21C G33U, with 0.11.
With G21C G33C, the self-cleavage amounted to 0.05.
For G21C G33A the value was 0.8; for G21U G36U, 0.12.
Turning to G21U G36A, the self-cleavage was 0.27.
For G21U G36C the value was 0.1; for G22U C37A, 0.06.
For G22U C37G the value was 0.03.
For G22U C37U the value was 0.05; for G21U C45U, 1.62; for G21U C45A, 0.68.
In the case of G21U C45G, the self-cleavage was found to be 0.18.
G22C C37U: the self-cleavage stood at 0.02.
With G22C C37G, the self-cleavage amounted to 0.05.
For G22C C37A the value was 0.09; for G21C U43G, 0.02; for G21C U43C, 0.06.
Then G21C U43A, with 0.07; and G22C U28G, with 0.43; and G22C U28A, with 0.44.
As to G22C U28C, the self-cleavage was found to be 0.5.
As to G21C A39U, the self-cleavage amounted to 0.81.
As for G21C A39C, the self-cleavage worked out at 0.07.
Then G21C A39G, with 0.05; and G22A G40A, with 0.08; and G22A G40C, with 0.09.
Consider G22A G40U, for which the self-cleavage was found to be 0.12.
For G22C A39G the value was 0.09; for G22C A39U, 0.55; for G22C A39C, 0.19.

The values are drawn from the RNAGym collection of RNA variant scans (doi:10.7554/elife.90254).
